This passage reports luciferase activity (antibody and EC50 results from patent US20210363266A1.

Assay [1] addresses human 4-1BB on the reporter cell strain HEK293F-h4-1BB-NFkB (human) (UniProt Q07011). Nature of the assay: cell-based or functional assay.
In assay [2] the target is human 4-1BB His protein (Sinobiological, Beijing #10041-H08H) (human) (UniProt Q07011). The assay can be described thus: capture ELISA, antibody captured, biotinylated 4-1BB-his.
Sequence of human 4-1BB His protein (Sinobiological, Beijing #10041-H08H) (human) (Q07011 24-186 limits assumed): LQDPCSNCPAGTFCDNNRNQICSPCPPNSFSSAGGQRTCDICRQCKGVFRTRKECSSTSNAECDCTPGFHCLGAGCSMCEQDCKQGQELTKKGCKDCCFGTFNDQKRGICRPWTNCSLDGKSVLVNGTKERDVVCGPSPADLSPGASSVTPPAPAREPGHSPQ

Sequence of human 4-1BB on the reporter cell strain HEK293F-h4-1BB-NFkB (human) (Q07011 24-255): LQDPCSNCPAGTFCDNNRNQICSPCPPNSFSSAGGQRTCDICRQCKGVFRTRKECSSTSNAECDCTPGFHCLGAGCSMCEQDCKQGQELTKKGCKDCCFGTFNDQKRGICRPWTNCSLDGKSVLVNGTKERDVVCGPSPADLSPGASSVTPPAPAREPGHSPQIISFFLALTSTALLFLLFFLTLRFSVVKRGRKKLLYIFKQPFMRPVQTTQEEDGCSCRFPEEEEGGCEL
Sequence of Urelumab (BMS) (antibody) (VH): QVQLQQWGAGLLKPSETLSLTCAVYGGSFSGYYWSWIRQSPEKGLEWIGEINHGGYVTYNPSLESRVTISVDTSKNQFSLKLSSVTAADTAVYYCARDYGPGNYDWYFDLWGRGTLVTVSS
Sequence of Urelumab (BMS) (antibody) (VL): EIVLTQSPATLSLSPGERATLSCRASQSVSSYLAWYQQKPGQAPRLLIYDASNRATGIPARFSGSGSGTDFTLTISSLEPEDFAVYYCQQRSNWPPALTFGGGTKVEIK

On to MOR7480 (Pfizer) (antibody), for which, in assay [1], the luciferase activity (antibody at 10 nM) stood at 1000.

On to Urelumab (BMS) (antibody), for which the luciferase activity (antibody at 10 nM) in assay [1] turned out to be 2190. Moreover, in assay [2], the EC50 amounted to 0.192 µg/mL.

In assay [1], hIgG (antibody) gave a luciferase activity (antibody at 10 nM) of 290.

What is called EC50 is the concentration at which the effect is half-maximal. Higher therefore signals a less potent agent.
